Reference: PMC6138665, “HUWE1 E3 ligase promotes PINK1/PARKIN-independent mitophagy by regulating AMBRA1 activation via IKKα” (Nature Communications, 2018)
Non-standard residues stand in square brackets, D forms with d. No end group written: not given here. pS = N[C@@H](COP(=O)(O)O)C(=O)O

Legend:
[1] = target: LC3B protein (recombinant) (UniProt Q9GZQ8 1-120); experiment: ITC; peptides at 0.35 mM titrated into 0.015 mM LC3 and GABARAP proteins in 21 steps; MicroCal VP-ITC; 25 °C and 35 °C (the LC3B titrations of Fig. 4a at 35 °C); 50 mM Na2HPO4, 100 mM NaCl, pH 7.0; one-site binding model; conditions: both partners purified
[2] = target: T1, GABARAP protein (recombinant) (UniProt O95166 1-117); experiment: as above; conditions: both partners purified
T1 construct: GABARAP, one of the six mATG8 proteins; CSPs were mapped on PDB 1GNU; source: unlabelled or 15N-labelled
T1 sequence (O95166 whole entry): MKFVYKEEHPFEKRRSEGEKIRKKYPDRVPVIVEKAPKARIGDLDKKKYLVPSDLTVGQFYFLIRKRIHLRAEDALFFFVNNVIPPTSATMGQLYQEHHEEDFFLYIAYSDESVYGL

Binder	Kd [1] [µM]	Kd [2] [µM]
EALN[pS]GVEYYWDQLNET (limits counted from S1014 as the fifth letter; also called S1014-phosphorylated AMBRA1-LIR peptide; source: synthetic peptide, bought: GenScript) [AMBRA1-LIR peptide, S1014 phosphorylated (P1)]	53	21
EALNSGVEYYWDQLNET (limits counted from S1014 as the fifth letter; also called unmodified AMBRA1-LIR; source: synthetic peptide, bought: GenScript) [AMBRA1-LIR peptide, unphosphorylated (P0)]	> 100	~40
